Earlier results on two substances are cited in article PMC4117600.

Where two headings read alike, the source gives them in different places.

The target of data set [1] is CCR4 (Homo sapiens) (UniProt P51679).
Data set [2] has the same target. This is another data set of the same source.

Sequence of CCR4 (Homo sapiens) (P51679 whole entry): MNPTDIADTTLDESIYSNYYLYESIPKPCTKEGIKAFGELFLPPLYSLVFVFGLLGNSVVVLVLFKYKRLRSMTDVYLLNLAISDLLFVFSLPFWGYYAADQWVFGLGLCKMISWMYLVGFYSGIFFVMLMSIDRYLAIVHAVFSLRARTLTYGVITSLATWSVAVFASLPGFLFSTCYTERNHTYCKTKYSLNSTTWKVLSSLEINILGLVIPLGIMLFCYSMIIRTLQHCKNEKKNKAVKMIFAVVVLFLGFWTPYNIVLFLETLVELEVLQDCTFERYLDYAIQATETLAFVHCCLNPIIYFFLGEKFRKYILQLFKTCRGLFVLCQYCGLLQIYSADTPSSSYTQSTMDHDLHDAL
Sequence of CCL22 (O00626 25-93): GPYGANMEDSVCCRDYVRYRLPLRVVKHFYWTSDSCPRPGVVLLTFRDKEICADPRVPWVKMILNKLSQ
Sequence of CCL17 (Q92583 24-94): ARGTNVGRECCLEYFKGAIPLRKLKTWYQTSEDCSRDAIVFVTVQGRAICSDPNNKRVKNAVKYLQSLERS

Consider CCL17 (from UniProt Q92583), for which the Kd with CCR4 (Homo sapiens) [1] is 2.1 nM.
Turning to CCL22 (from UniProt O00626), the Kd with CCR4 (Homo sapiens) [2] was 0.18 nM.
